The target of this assay is GST-HAUSP (human, UniProt Q93009 1-1102). Put plainly: pull-down.
Chain of GST-HAUSP (Q93009 whole entry): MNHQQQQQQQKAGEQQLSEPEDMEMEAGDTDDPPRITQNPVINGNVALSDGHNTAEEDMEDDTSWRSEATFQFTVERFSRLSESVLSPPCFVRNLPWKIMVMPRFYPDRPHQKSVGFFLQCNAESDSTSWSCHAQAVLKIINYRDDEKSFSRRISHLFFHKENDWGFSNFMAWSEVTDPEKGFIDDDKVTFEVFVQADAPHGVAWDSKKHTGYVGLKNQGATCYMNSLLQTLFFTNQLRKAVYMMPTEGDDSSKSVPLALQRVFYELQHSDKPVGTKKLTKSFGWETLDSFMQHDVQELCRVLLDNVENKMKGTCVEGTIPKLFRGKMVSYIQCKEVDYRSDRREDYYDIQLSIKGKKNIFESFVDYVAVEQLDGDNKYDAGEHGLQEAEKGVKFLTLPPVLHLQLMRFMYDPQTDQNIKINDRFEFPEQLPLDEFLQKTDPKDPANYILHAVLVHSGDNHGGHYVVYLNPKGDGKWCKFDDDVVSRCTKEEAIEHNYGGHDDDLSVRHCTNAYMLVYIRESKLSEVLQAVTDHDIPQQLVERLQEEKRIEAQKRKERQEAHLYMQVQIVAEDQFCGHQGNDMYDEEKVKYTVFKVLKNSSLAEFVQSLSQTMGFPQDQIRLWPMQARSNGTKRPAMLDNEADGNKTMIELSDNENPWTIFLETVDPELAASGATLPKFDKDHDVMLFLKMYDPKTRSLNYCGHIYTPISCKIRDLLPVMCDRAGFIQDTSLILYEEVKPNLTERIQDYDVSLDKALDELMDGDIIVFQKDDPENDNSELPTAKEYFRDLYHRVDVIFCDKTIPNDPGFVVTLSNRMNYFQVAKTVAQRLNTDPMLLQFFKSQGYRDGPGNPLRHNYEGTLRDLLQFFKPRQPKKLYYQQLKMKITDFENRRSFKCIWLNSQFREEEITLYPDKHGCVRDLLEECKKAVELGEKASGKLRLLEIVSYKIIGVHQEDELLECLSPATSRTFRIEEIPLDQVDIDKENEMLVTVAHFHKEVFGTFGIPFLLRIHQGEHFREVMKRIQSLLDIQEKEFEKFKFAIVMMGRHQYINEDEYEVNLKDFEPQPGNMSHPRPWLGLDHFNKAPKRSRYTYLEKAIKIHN

B1: Myc/His-Rb (Rb in pcDNA3.1-Myc/His B(-)) (natural protein, human, UniProt P06400 1-928, looked up)
chain: MPPKTPRKTAATAAAAAAEPPAPPPPPPPEEDPEQDSGPEDLPLVRLEFEETEEPDFTALCQKLKIPDHVRERAWLTWEKVSSVDGVLGGYIQKKKELWGICIFIAAVDLDEMSFTFTELQKNIEISVHKFFNLLKEIDTSTKVDNAMSRLLKKYDVLFALFSKLERTCELIYLTQPSSSISTEINSALVLKVSWITFLLAKGEVLQMEDDLVISFQLMLCVLDYFIKLSPPMLLKEPYKTAVIPINGSPRTPRRGQNRSARIAKQLENDTRIIEVLCKEHECNIDEVKNVYFKNFIPFMNSLGLVTSNGLPEVENLSKRYEEIYLKNKDLDARLFLDHDKTLQTDSIDSFETQRTPRKSNLDEEVNVIPPHTPVRTVMNTIQQLMMILNSASDQPSENLISYFNNCTVNPKESILKRVKDIGYIFKEKFAKAVGQGCVEIGSQRYKLGVRLYYRVMESMLKSEEERLSIQNFSKLLNDNIFHMSLLACALEVVMATYSRSTSQNLDSGTDLSFPWILNVLNLKAFDFYKVIESFIKAEGNLTREMIKHLERCEHRIMESLAWLSDSPLFDLIKQSKDREGPTDHLESACPLNLPLQNNHTAADMYLSPVRSPKKKGSTTRVNSTANAETQATSAFQTQKPLKSTSLSLFYKKVYRLAYLRLNTLCERLLSEHPELEHIIWTLFQHTLQNEYELMRDRHLDQIMMCSMYGICKVKNIDLKFKIIVTAYKDLPHAVQETFKRVLIKEEEYDSIIVFYNSVFMQRLKTNILQYASTRPPTLSPIPHIPRSPYKFPSSPLRIPGGNIYISPLKSPYKISEGLPTPTKMTPRSRILVSIGESFGTSEKFQKINQMVCNSDRVLKRSAEGSNPPKPLKKLRFDIEGSDEADGSKHLPGESKFQQKLAEMTSTRTRMQKQKMNDSMDTSNKEEK
As for B1, the binding result is recorded as “binds”.

These data come from PMC4149788 (The Febs Journal, 2014).
